T1: recombinant mouse LRP5-His chimera (mouse, UniProt Q91VN0 31-1383)
T1 construct: extracellular domain; not shown: His tag
T1 sequence (looked up): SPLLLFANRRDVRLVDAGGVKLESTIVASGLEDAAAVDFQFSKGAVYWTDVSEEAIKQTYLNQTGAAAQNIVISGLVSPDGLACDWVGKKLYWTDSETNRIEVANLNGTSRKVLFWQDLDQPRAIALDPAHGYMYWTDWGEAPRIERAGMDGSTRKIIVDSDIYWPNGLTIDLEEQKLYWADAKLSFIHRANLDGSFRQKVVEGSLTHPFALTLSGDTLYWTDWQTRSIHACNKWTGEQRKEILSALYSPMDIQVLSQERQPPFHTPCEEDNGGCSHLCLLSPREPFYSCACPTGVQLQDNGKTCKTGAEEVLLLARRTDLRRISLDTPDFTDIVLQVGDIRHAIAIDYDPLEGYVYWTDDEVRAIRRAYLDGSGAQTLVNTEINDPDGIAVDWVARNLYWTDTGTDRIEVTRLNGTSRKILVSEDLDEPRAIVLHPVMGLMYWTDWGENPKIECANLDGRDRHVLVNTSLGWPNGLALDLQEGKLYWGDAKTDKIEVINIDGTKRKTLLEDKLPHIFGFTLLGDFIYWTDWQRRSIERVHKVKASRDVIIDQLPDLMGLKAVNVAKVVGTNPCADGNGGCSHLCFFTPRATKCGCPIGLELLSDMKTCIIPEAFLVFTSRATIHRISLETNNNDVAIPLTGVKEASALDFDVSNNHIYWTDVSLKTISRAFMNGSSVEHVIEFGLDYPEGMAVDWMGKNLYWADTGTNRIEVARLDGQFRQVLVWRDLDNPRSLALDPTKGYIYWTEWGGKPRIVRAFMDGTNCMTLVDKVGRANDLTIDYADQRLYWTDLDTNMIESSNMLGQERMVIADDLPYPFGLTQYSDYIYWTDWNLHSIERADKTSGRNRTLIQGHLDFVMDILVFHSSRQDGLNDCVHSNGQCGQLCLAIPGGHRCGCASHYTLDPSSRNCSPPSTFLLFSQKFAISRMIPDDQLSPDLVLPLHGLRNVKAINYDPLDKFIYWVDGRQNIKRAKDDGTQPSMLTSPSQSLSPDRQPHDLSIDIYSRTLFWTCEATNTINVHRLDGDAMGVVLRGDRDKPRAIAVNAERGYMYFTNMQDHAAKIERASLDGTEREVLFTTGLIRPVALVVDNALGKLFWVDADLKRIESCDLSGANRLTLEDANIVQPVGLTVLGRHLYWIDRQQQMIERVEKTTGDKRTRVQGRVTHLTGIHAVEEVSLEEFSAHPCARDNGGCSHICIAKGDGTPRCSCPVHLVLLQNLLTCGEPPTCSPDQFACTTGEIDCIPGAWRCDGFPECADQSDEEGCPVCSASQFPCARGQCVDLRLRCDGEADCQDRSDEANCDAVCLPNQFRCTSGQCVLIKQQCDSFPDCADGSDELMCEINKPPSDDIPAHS

T2: recombinant human LRP6-Fc chimera (human, UniProt O75581 20-1370)
T2 construct: extracellular domain; also called human LRP6 chimera; not shown: Fc part of the chimera
T2 sequence (looked up): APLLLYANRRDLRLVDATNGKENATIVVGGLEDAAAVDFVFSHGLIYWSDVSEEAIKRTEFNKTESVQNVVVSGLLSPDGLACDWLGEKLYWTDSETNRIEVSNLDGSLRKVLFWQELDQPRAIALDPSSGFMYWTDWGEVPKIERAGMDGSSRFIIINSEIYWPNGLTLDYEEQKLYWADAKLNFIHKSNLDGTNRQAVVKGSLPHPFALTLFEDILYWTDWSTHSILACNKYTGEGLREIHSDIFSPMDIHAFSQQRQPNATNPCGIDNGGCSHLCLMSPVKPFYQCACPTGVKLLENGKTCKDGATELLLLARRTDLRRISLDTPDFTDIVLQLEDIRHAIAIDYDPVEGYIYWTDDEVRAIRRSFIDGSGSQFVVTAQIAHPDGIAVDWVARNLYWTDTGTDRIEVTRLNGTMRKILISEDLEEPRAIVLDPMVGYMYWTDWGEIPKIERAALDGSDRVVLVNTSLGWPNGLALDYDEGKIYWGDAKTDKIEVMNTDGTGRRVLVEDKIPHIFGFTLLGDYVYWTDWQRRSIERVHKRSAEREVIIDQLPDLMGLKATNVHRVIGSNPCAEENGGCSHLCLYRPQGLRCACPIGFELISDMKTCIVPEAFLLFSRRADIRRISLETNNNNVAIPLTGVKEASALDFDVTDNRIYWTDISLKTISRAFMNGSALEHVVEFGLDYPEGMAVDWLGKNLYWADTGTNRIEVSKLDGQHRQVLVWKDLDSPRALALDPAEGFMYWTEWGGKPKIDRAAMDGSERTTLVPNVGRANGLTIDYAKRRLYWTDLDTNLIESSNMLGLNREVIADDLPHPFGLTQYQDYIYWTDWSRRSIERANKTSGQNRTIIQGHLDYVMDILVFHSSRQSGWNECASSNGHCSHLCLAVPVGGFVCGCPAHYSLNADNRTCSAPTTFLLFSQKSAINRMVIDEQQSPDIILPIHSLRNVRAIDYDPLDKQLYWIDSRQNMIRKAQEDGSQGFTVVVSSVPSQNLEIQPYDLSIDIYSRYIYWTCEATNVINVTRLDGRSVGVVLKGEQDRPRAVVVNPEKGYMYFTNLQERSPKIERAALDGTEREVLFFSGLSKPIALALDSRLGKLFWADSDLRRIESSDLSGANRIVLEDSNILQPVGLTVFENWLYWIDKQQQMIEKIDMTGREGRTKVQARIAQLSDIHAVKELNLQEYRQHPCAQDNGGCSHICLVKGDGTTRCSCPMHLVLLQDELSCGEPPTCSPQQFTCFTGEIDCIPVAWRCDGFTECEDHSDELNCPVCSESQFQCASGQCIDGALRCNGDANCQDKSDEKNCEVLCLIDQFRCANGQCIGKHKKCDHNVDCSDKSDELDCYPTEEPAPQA


What was measured:
[1] = molecular target: T1, recombinant mouse LRP5-His chimera; test: single-point ELISA, IgG1 on coated antigen
Protocol: FIGS. 1a and 1b show LRP six antibodies. (A) The amino acid sequences of the complementarity determining regions (CDR) of the heavy (H) and the light (L) chains are presented. The antibodies were grouped into unique epitopes as determined by competitive ELISAs. (B) Single-point ELISAs were performed on 96-well Maxisorb immune plates coated with the […] of mouse LRP5, mouse LRP6 and human LRP6 chimeras. The plates were incubated with the purified Fab or IgG1 at the concentrations indicated followed by incubation with horseradish peroxidase (HRP)-conjugated anti-kappa antibody. The wells were washed eight times followed by incubation with 3,3′,5,5′-tetramethylbenzidine/H₂O₂ peroxidase (TMB) substrate for 5-10 min. The reaction was stopped by adding one M H₃PO₄ and the absorbance was measured spectrometrically at 450 nm in a microtiter plate reader.
(§1) The full length IgG1s were purified and a single-point ELISA was done to determine the specificity of the antibodies. […] A multipoint competitive ELISA was used to determine the relative affinities of the antibodies to the recombinant antigen.

[2] = molecular target: T2, recombinant human LRP6-Fc chimera; test: multipoint competitive ELISA; human LRP6-Fc chimera titrated against OD450 of the IgG1; non-linear regression
Protocol: as §1
Table 3 reports the IC50 of LRP6 antibodies as determined by competitive ELISA. The log of the recombinant human LRP6-Fc chimera concentration (x-axis) was plotted against the OD450 reading of the antibody (y-axis). The IC50 was determined by non-linear regression analysis.

[3] = molecular target: full-length LRP6 receptor expressed on the surface of cell lines (UniProt O75581 20-1613, limits assumed); test: cell-based or functional assay

Binder | binding result [1] | IC50 [2] [nM] | functional IC50, Wnt3aCM-stimulated TOPflash reporter activity (MDAMB231, U2OS, H23 cells) [3] [nM] | functional IC50, Wnt3aCM-stimulated TOPflash reporter activity (MDAMB231 cells) [3] [nM]
LRP6-A10 IgG1 antibody (antibody, V domains shown, Tested as purified full length IgG1) VH: EVQLVESGGGLVQPGGSLRLSCAASGFNISYSSIHWVRQAPGKGLEWVAYISSYYGYTYYADSVKGRFTISADTSKNTAYLQMNSLRAEDTAVYYCARAHYFPWAGAMDYWGQGTLVTVSS VL: DIQMTQSPSSLSASVGDRVTITCRASQSVSSAVAWYQQKPGKAPKLLIYSASSLYSGVPSRFSGSRSGTDFTLTISSLQPEDFATYYCQQYSWGPFTFGQGTKVEIKR | no binding | 6.29 | < 0.3 | 
LRP6-A10 Fab protein (Fab, V domains shown) VH: EVQLVESGGGLVQPGGSLRLSCAASGFNISYSSIHWVRQAPGKGLEWVAYISSYYGYTYYADSVKGRFTISADTSKNTAYLQMNSLRAEDTAVYYCARAHYFPWAGAMDYWGQGTLVTVSS VL: DIQMTQSPSSLSASVGDRVTITCRASQSVSSAVAWYQQKPGKAPKLLIYSASSLYSGVPSRFSGSRSGTDFTLTISSLQPEDFATYYCQQYSWGPFTFGQGTKVEIKR |  |  |  | < 0.3
LRP6-G3 IgG1 antibody (antibody, V domains shown, Tested as purified full length IgG1) VH: EVQLVESGGGLVQPGGSLRLSCAASGFNISSYYIHWVRQAPGKGLEWVASIYSSYGYTSYADSVKGRFTISADTSKNTAYLQMNSLRAEDTAVYYCARTVRGSKKPYFSGWAMDYWGQGTLVTVSS VL: DIQMTQSPSSLSASVGDRVTITCRASQSVSSAVAWYQQKPGKAPKLLIYSASSLYSGVPSRFSGSRSGTDFTLTISSLQPEDFATYYCQQYYWPITFGQGTKVEIKR | no binding | 10.2 |  | 

Now from value to binder:

binding result [1] | IC50 [2] [nM] | functional IC50, Wnt3aCM-stimulated TOPflash reporter activity (MDAMB231, U2OS, H23 cells) [3] [nM] | functional IC50, Wnt3aCM-stimulated TOPflash reporter activity (MDAMB231 cells) [3] [nM] | Binder
no binding |  |  |  | LRP6-B6 IgG1 antibody (antibody, V domains shown, Tested as purified full length IgG1) VH: EVQLVESGGGLVQPGGSLRLSCAASGFNISYSSIHWVRQAPGKGLEWVASISPYYGYTYYADSVKGRFTISADTSKNTAYLQMNSLRAEDTAVYYCARSSYFPWFSAMDYWGQGTLVTVSS VL: DIQMTQSPSSLSASVGDRVTITCRASQSVSSAVAWYQQKPGKAPKLLIYSASSLYSGVPSRFSGSRSGTDFTLTISSLQPEDFATYYCQQYYFLITFGQGTKVEIKR
no binding | 9.58 |  |  | LRP6-A1 IgG1 antibody (antibody, V domains shown, Tested as purified full length IgG1; Synthetic antibody on a human framework, detected with anti-kappa antibody) VH: EVQLVESGGGLVQPGGSLRLSCAASGFNLSYYYIHWVRQAPGKGLEWVASIYSSYGYTSYADSVKGRFTISADTSKNTAYLQMNSLRAEDTAVYYCARTVRGSKKPYFSGWAMDYWGQGTLVTVSS VL: DIQMTQSPSSLSASVGDRVTITCRASQSVSSAVAWYQQKPGKAPKLLIYSASSLYSGVPSRFSGSRSGTDFTLTISSLQPEDFATYYCQQYYWPITFGQGTKVEIKR
no binding | 6.03 |  |  | LRP6-G9 IgG1 antibody (antibody, V domains shown, Tested as purified full length IgG1) VH: EVQLVESGGGLVQPGGSLRLSCAASGFNIYSYYIHWVRQAPGKGLEWVASIYSSYSYTSYADSVKGRFTISADTSKNTAYLQMNSLRAEDTAVYYCARTVRGSKKPYFSGWAMDYWGQGTLVTVSS VL: DIQMTQSPSSLSASVGDRVTITCRASQSVSSAVAWYQQKPGKAPKLLIYSASSLYSGVPSRFSGSRSGTDFTLTISSLQPEDFATYYCQQYYWPITFGQGTKVEIKR
